These results are taken from the RNAGym collection of RNA variant scans (doi:10.7554/elife.80360).

The labels stand for the following.
B1: Hairpin Ribozyme (parent)
chain: GUCCUCUUUCACGUGCGCGUGAAAGAGAGAAGUGAACCAGAGAAACACACGUUGUGGUAUAUUACCUGGUA

Variants of B1 are the subject of this series. Nature of the series: self-cleavage, relative activity (ratio to wild type); higher = more cleavage; co-transcriptional.
Take U58G A71U: the self-cleavage is 0.455.
For U58G A71C the value was 1.07; for U58G A71G, 0.935.
Turning to U62C U70G, the self-cleavage was 0.126.
Regarding U55G C66G, the self-cleavage worked out at 0.251.
The result for G57C U67C reads 0.114; that for G57C U67G, 0.123.
As for A61G C65A, the self-cleavage turned out to be 0.159.
Regarding A61G C65G, the self-cleavage was determined as 0.303.
As to G56U A71G, the self-cleavage was 0.127.
For A59G U62A, the self-cleavage was determined as 0.144.
For U58A C65U the value was 0.203; for U58A C65A, 0.503.
A61U C66G: the self-cleavage stood at 0.233.
For A59G C65G the value was 0.247; for A59G C65A, 0.155.
For A59C, the self-cleavage was determined as 0.171.
For A59U the value was 0.157; for A59G, 0.17; for U55G G68U, 0.139.
For U63C C66A the value was 0.23; for U60C U62A, 0.253.
Regarding U60C U62C, the self-cleavage worked out at 0.569.
With A59C C66U, the self-cleavage stood at 0.107.
For U55C G57A the value was 0.11; for A59U G69U, 0.191; for A59U G69C, 0.323.
The result for A59U G69A reads 0.182; that for G57U A71C, 0.738.
With G56A G68C, the self-cleavage was determined as 0.0908.
G56A G68U: the self-cleavage turned out to be 0.146.
Consider A59C U67G, for which the self-cleavage is 0.24.
For G57C U60A the value was 0.14; for G57C U60G, 0.178; for U60A G68A, 0.298.
For the variant A61C C65G, the self-cleavage came out at 0.189.
As to A59U U60A, the self-cleavage turned out to be 0.195.
The result for G57C A59G reads 0.244.
The result for G57C A59U reads 0.159; that for G57C A64U, 0.095.
For U62G G68C the value was 0.186; for A61C U62C, 0.166.
In the case of G56A U70G, the self-cleavage is 0.254.
For G57A G69A the value was 0.122; for A61G U70G, 0.156; for A61C G69C, 0.0992.
The result for A59C G69C reads 0.216; that for U55G A71U, 0.209.
For the variant G56A A71U, the self-cleavage came to 0.142.
For G57C C66G the value was 0.113.
In the case of A59C U63A, the self-cleavage stood at 0.169.
Regarding A64G G68C, the self-cleavage is 0.122.
The result for U55C G69C reads 0.183; that for U55C G69A, 0.166.
Turning to U55C G69U, the self-cleavage came to 0.159.
Take U62A U70G: the self-cleavage was determined as 0.16.
For G56A A59C the value was 0.169; for U58C U62A, 0.24.
Regarding U62G U70A, the self-cleavage amounted to 0.163.
The result for G57A A64G reads 0.131; that for G57A A64C, 0.118.
Turning to U58A U63G, the self-cleavage came to 0.194.
Regarding U58A U63C, the self-cleavage is 0.307.
As to U55G U62G, the self-cleavage is 0.
On to A59G C66U, for which the self-cleavage stood at 0.0625.
For G56A G57U the value was 0.176; for A59C U60A, 0.223; for A59C U60G, 0.274.
For U62G U67G the value was 0.127; for U62G U67C, 0.133.
Take U58C G68C: the self-cleavage was 0.243.
For U62C C66U the value was 0.189.
For U62C C66G the value was 0.213; for U60G, 0.615; for U60A, 0.849.
For U60C the value was 1.16; for U55C, 0.25; for U55G, 0.297.
In the case of U60G U63C, the self-cleavage was 0.171.
For U63C U70G the value was 0.248; for G57A U70C, 0.274.
As to U55C G56A, the self-cleavage was 0.0854.
In the case of U55C G56C, the self-cleavage is 0.114.
As for G56C A64C, the self-cleavage is 0.104.
The result for G56C A64G reads 0.148; that for U63G C66U, 0.109; that for U63G C66A, 0.119.
As for G57U U63A, the self-cleavage was determined as 0.146.
In the case of A61U U70G, the self-cleavage came out at 0.261.
Consider A61U U70C, for which the self-cleavage stood at 0.231.
With U58C A61G, the self-cleavage stood at 0.
For G57U U70G, the self-cleavage amounted to 0.225.
The result for U62G A71C reads 0.281; that for U62G A71G, 0.143; that for U62C G69A, 0.112.
For U60C C65G the value was 0.531.
The result for U60C C65U reads 0.909; that for U63A G69A, 0.153; that for A61U U67G, 0.129.
Consider A61U U67C, for which the self-cleavage was 0.175.
For A61U U67A the value was 0.178.
For G56U G68A the value was 0.183; for G56U G68C, 0.157.
For U60G G69A the value was 0.0995; for U60G G69C, 0.317.
For U55C A61U, the self-cleavage was 0.281.
The result for A64C G68C reads 0.273; that for G56A C66A, 0.0948.
The result for U55G U67G reads 0.233; that for U60G U62G, 0.222.
In the case of U60G U62C, the self-cleavage stood at 0.244.
The result for A59G G69C reads 0.161; that for U58A G68C, 0.194.
In the case of A59U A64U, the self-cleavage stood at 0.191.
With U60A U62G, the self-cleavage amounted to 0.0972.
For U60A U62C the value was 0.373; for U60A U62A, 0.0542; for U55G G69U, 0.25.
For U55C U67G the value was 0.113; for U55C U67A, 0.177.
The result for A59C A71C reads 0.304.
Take U58G G69C: the self-cleavage came out at 0.142.
For U58G G69A the value was 0.292; for U63G U70C, 0.161.
For U63G U70G the value was 0.182; for G57U C65G, 0.134.
For the variant G56C A59G, the self-cleavage came out at 0.205.
For G56C A59C the value was 0.154; for U58C C66G, 0.154.
Consider G56U U63C, for which the self-cleavage was found to be 0.169.
The result for G56U A59U reads 0.171; that for G56U A59C, 0.135; that for A61G G68C, 0.195.
The result for A61G C66G reads 0.329.
The result for G57C G68U reads 0.172.
For the variant U58C U70C, the self-cleavage came out at 0.945.
For U62G C65U the value was 0.0799; for A59G A71C, 0.444; for U62A C65A, 0.165.
The result for U62A C65U reads 0.204; that for A59G G68C, 0.144.
The result for U60G C66G reads 0.261.
For the variant U55A U67G, the self-cleavage stood at 0.27.
U55A U67A: the self-cleavage amounted to 0.219.
The result for U58C G69A reads 0.421.
As to U58C G69C, the self-cleavage amounted to 0.259.
Turning to G57U A64G, the self-cleavage amounted to 0.202.
In the case of G57U A64C, the self-cleavage was found to be 0.139.
G57U A64U: the self-cleavage came out at 0.173.
For G56C A71G, the self-cleavage turned out to be 0.28.
Regarding A64G C66G, the self-cleavage stood at 0.226.
The result for U58G U60A reads 0.714.
The result for U58G U60G reads 0.731.
For A64G the value was 0.544; for A64C, 0.174.
For U55C C65G, the self-cleavage amounted to 0.194.
The result for A64C C66G reads 0.084; that for A64C C66A, 0.0503; that for A64C C66U, 0.27.
As for U58A U62A, the self-cleavage stood at 0.0926.
U58A A71C: the self-cleavage came out at 1.19.
With U58A A71U, the self-cleavage was determined as 0.391.
On to U60G A64C, for which the self-cleavage came to 0.186.
The result for U60G A64G reads 0.335.
Regarding U55C A71G, the self-cleavage was 0.388.
Consider U60C U63G, for which the self-cleavage is 0.136.
On to U55G U63C, for which the self-cleavage worked out at 0.0583.
